T1: mIL22RA1-Fc fusion protein (mouse, UniProt Q80XZ4 16-230, limits assumed)
T1 construct: also called mouse IL-22Ra 1; IL-22Rα-1; not shown: Fc part
T1 sequence (looked up): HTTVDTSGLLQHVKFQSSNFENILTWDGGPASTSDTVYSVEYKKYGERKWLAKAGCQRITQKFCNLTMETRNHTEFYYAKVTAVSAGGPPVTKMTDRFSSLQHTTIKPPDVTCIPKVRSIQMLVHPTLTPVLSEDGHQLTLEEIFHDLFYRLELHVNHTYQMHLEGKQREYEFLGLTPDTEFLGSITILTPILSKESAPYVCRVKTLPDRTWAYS

T2: endogenous IL-22 receptor on AsPC-1 cells (UniProt Q8N6P7 16-574, limits assumed)
T2 sequence (looked up): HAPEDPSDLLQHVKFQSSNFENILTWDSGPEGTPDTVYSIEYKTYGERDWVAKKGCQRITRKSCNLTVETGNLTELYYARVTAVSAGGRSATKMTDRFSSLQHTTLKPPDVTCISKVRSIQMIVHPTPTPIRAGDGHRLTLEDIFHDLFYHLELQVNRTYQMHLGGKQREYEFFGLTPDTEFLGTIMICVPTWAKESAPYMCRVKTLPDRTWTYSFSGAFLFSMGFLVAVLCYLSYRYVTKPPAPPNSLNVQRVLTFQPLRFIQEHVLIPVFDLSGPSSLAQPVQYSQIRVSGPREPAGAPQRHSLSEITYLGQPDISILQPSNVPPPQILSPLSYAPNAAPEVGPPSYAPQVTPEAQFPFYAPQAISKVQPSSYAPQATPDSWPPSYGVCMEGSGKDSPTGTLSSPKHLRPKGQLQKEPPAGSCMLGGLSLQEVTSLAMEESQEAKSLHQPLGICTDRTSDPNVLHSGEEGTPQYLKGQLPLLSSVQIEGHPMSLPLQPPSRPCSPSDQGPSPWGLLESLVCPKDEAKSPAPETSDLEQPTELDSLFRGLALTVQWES

B1: mIL-22-hIgG1 Fc B1 (Fc fusion)
chain: LPVNTRCKLEVSNFQQPYIVNRTFMLAKEASLADNNTDVRLIGEKLFRGVSAKDQCYLMKQVLNFTLEDVLLPQSDRFQPYMQEVVPFLTKLSNQLSSCHISGDDQNIQKNVRRLKETVKKLGESGEIKAIGELDLLFMSLRNACVARGPTIKPCPPCKCPAPNLLGGPSVFIFPPKIKDVLMISLSPIVTCVVVDVSEDDPDVQISWFVNNVEVHTAQTQTHREDYNSTLRVVSALPIQHQDWMSGKEFKCKVNNKDLPAPIERTISKPKGSVRAPQVYVLPPPEEEMTKKQVTLTCMVTDFMPEDIYVEWTNNGKTELNYKNTEPVLDSDGSYFMYSKLRVEKKNWVERNSYSCSVVHEGLHNHHTTKSFSRTPGK
B2: mIL-22-anti-HSA-mIL-22 A9 (other)
chain: LPVNTRCKLEVSNFQQPYIVNRTFMLAKEASLADNNTDVRLIGEKLFRGVSAKDQCYLMKQVLNFTLEDVLLPQSDRFQPYMQEVVPFLTKLSNQLSSCHISGDDQNIQKNVRRLKETVKKLGESGEIKAIGELDLLFMSLRNACVSGGGGSGGGGSGGGGSQVQLVESGGGVVQPGGSLRLSCAASGFAFRGFGMSWVRQAPGKGLEWVSSINNGGSDTYYADSVKGRFTISRDNSKNTLYLQMNSLRAEDTAVYYCAIGGPGASPSGQGTQVTVSSGGGSGGGSGGGSGGGSLPVNTRCKLEVSNFQQPYIVNRTFMLAKEASLADNNTDVRLIGEKLFRGVSAKDQCYLMKQVLNFTLEDVLLPQSDRFQPYMQEVVPFLTKLSNQLSSCHISGDDQNIQKNVRRLKETVKKLGESGEIKAIGELDLLFMSLRNACV
notes: Single-chain fusion with two IL-22 domains, expressed in ExpiCHO cells
B3: hIL-22-anti-HSA A1 (other)
chain: APISSHCRLDKSNFQQPYITNRTFMLAKEASLADNNTDVRLIGEKLFHGVSMSERCYLMKQVLNFTLEEVLFPQSDRFQPYMQEVVPFLARLSNRLSTCHIEGDDLHIQRNVQKLKDTVKKLGESGEIKAIGELDLLFMSLRNACISGGGGSGGGGSGGGGSEVQLVESGGGLVQPGGSLRLSCAASGSTWSINTLAWYRQAPGKQRDLVARISSGGSTYYADSVKGRFTISRDNSKNTLYLQMNSLRAEDTAVYYCYAQSTWYPPSWGQGTLVTVSS
notes: Single-chain fusion of IL-22 and an anti-HSA VHH, expressed in ExpiCHO cells; also called fusion protein A1
B4: mIL-22-anti-HSA A4 (other)
chain: LPVNTRCKLEVSNFQQPYIVNRTFMLAKEASLADNNTDVRLIGEKLFRGVSAKDQCYLMKQVLNFTLEDVLLPQSDRFQPYMQEVVPFLTKLSNQLSSCHISGDDQNIQKNVRRLKETVKKLGESGEIKAIGELDLLFMSLRNACVSGGGGSGGGGSGGGGSQVQLVESGGGVVQPGGSLRLSCAASGFAFRGFGMSWVRQAPGKGLEWVSSINNGGSDTYYADSVKGRFTISRDNSKNTLYLQMNSLRAEDTAVYYCAIGGPGASPSGQGTQVTVSS
notes: Single-chain fusion, expressed in ExpiCHO cells
B5: Anti-HSA-mIL-22 A3 (other)
chain: QVQLVESGGGVVQPGGSLRLSCAASGFAFRGFGMSWVRQAPGKGLEWVSSINNGGSDTYYADSVKGRFTISRDNSKNTLYLQMNSLRAEDTAVYYCAIGGPGASPSGQGTQVTVSSGGGSGGGSGGGSGGGSLPVNTRCKLEVSNFQQPYIVNRTFMLAKEASLADNNTDVRLIGEKLFRGVSAKDQCYLMKQVLNFTLEDVLLPQSDRFQPYMQEVVPFLTKLSNQLSSCHISGDDQNIQKNVRRLKETVKKLGESGEIKAIGELDLLFMSLRNACV
notes: as for B4
B6: mIL-22-anti-HSA A2 (other)
chain: LPVNTRCKLEVSNFQQPYIVNRTFMLAKEASLADNNTDVRLIGEKLFRGVSAKDQCYLMKQVLNFTLEDVLLPQSDRFQPYMQEVVPFLTKLSNQLSSCHISGDDQNIQKNVRRLKETVKKLGESGEIKAIGELDLLFMSLRNACVSGGGGSGGGGSGGGGSEVQLVESGGGLVQPGGSLRLSCAASGSTWSINTLAWYRQAPGKQRDLVARISSGGSTYYADSVKGRFTISRDNSKNTLYLQMNSLRAEDTAVYYCYAQSTWYPPSWGQGTLVTVSS
notes: Single-chain fusion, expressed in ExpiCHO cells; also called fusion protein A2
B7: mIL-22-anti-HSA-mIL-22 A8 (other)
chain: LPVNTRCKLEVSNFQQPYIVNRTFMLAKEASLADNNTDVRLIGEKLFRGVSAKDQCYLMKQVLNFTLEDVLLPQSDRFQPYMQEVVPFLTKLSNQLSSCHISGDDQNIQKNVRRLKETVKKLGESGEIKAIGELDLLFMSLRNACVSGGGGSGGGGSGGGGSEVQLVESGGGLVQPGGSLRLSCAASGSTWSINTLAWYRQAPGKQRDLVARISSGGSTYYADSVKGRFTISRDNSKNTLYLQMNSLRAEDTAVYYCYAQSTWYPPSWGQGTLVTVSSGGGSGGGSGGGSGGGSLPVNTRCKLEVSNFQQPYIVNRTFMLAKEASLADNNTDVRLIGEKLFRGVSAKDQCYLMKQVLNFTLEDVLLPQSDRFQPYMQEVVPFLTKLSNQLSSCHISGDDQNIQKNVRRLKETVKKLGESGEIKAIGELDLLFMSLRNACV
notes: Single-chain fusion with two IL-22 domains, expressed in ExpiCHO cells; also called fusion protein A8

We go through eight molecules from US20220033454A1 (ANWITA BIOSCIENCES, published 2022).

One assay concerns the target T1, mIL22RA1-Fc fusion protein. Put plainly: BLI (Octet RED96); mIL22RA1-Fc captured on AHC biosensor, fusion protein in solution at 400 nM, global fit. The protocol:
OCTET® RED96 was used to characterize the interactions of an IL-22 fusion protein with a mouse IL-22Ra 1 (mIL22RA1). Briefly, an mIL22RA1-Fc fusion protein was loaded onto an anti-human IgG Fc capture (AHC) biosensor. The biosensor was then dipped into a solution containing the IL-22 fusion protein at 400 nM. Primary experimental data was analyzed with global fitting to determine a dissociation constant (Kd).
For B1, the Kd (commonly the free concentration of one partner at which half of the binding sites on the other are occupied at equilibrium, for simple one-to-one binding) amounted to 1.4 nM.

For B2, the Kd was found to be 0.77 nM.

In turn, B3 came in with a Kd of 300 nM. Consider B4, for which the affinity, expressed as Kd, was 67 nM. For the molecule B5, the affinity, expressed as Kd, was 30 nM.

B6: binding was characterised by a dissociation constant (Kd) of 61 nM. As for B7, the Kd was determined as 1.2 nM.

Another assay concerns the target T2, endogenous IL-22 receptor on AsPC-1 …. Nature of the assay: cell-based or functional assay.
Consider B2, for which the “EC50 of STAT3 phosphorylation (phospho-STAT3 Tyr705 HTRF) in AsPC-1 cells” value came out at 0.5 µM. The same measure, in the same setting: in the case of B3 it was 0.8 µM; in that of B4, 0.6 µM.

With B5, the “EC50 of STAT3 phosphorylation (phospho-STAT3 Tyr705 HTRF) in AsPC-1 cells” value is 0.5 µM. Same read-out and setting: then B6, with 0.7 µM; and B7, with 0.5 µM.

Another assay concerns the target endogenous IL-22 receptor on AsPC-1 cells (UniProt Q8N6P7). Nature of the assay: cell-based or functional assay.
Consider “recombinant human IL-22 (from UniProt Q9GZX6 34-179) (ligand)”, for which the EC50 of STAT3 phosphorylation (phospho-STAT3 Tyr705 HTRF) in AsPC-1 cells came out at 0.09 µM.
